For 3 substances, other: interaction score results are on record in article PMC6540616.

What all share (experiment): DHFR protein complementation assay (yeast growth)
Settings in all cases: MTX-containing media relative to MTX-free media; read off a plot

Assay [1] deals with caskin1 SAM fused to DHFR F3 (UniProt Q6P9K8).
Assay [2] has as its target trio IgPSK fused to DHFR F3.
Assay [3] has as its target PTPσ full-length (FL) fused to DHFR F1-2, wild type.

Sequence of UniProt Q6P9K8 (Q6P9K8 344-636): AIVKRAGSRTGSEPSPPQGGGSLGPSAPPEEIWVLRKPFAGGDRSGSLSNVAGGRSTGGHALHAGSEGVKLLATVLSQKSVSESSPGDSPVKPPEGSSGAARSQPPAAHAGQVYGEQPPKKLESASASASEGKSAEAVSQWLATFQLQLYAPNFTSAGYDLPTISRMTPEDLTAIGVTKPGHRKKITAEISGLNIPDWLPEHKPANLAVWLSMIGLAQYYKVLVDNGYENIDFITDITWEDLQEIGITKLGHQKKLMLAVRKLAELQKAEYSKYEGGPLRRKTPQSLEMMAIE

For “PTPσ full-length (FL) fused to DHFR F1-2, wild type EGFID”, the other: interaction score in assay [1] is -0.11.
“PTPσ intracellular region (ICR) fused to DHFR F1-2, wild type EGFID”: in assay [2], the other: interaction score was 0.93.
In assay [3], “PTPσ full-length (FL) fused to DHFR F1-2, wild type QFG” showed an other: interaction score of 0.8.
